For four substances, stoichiometry N (PtrHCT per Ptr4CL) results are on record in publication PMC8527181.

Test [1] has as its target Ptr4CL (endogenous in SDX extract, member not told). Put plainly: cross-linking; crude SDX extract (25 mM sodium phosphate buffer, pH 7.4) cross-linked with DSP, SDS-PAGE, western blot with PtrHCT1 and PtrHCT6 specific antibodies. A general note: Immunoblotting shows a protein as a band on a membrane.
The target of test [2] is Ptr4CL3-6 × His, recombinant (Populus trichocarpa). Put plainly: cross-linking; recombinant Ptr4CL and PtrHCT, 200 nM each in PBS, DSP at 20-fold molar excess, room temperature 5 min, SDS-PAGE, western blot with Ptr4CL3 and PtrHCT1 antibodies.
In test [3] the target is Ptr4CL5-6 × His, recombinant (Populus trichocarpa). The description is as above.

On to “PtrHCT1, endogenous in SDX protein extract (enzyme)”, for which the stoichiometry N (PtrHCT per Ptr4CL) in test [1] was determined as 2.

As for PtrHCT1-6 × His, recombinant (enzyme), the stoichiometry N (PtrHCT per Ptr4CL) in test [2] and in test [3] was 2 throughout.

The substance “PtrHCT6, endogenous in SDX protein extract (enzyme)” yielded a stoichiometry N (PtrHCT per Ptr4CL) in test [1] of 2.

Consider PtrHCT6-6 × His, recombinant (enzyme), for which the stoichiometry N (PtrHCT per Ptr4CL) in test [2] worked out at 2.
